Laboratory results: patent US20240043552A1 (Eli Lilly, published 2024)
Positions count from the first letter of the chain named. Names may count otherwise.

B1: MetMAb × BHA10 IgG BsAb, CH1/Cκ design 14.3.1.2 (bispecific antibody)
heavy 1: EVQLVESGGGLVQPGGSLRLSCAASGYTFTSYWLHWVRKAPGKGLEWVGMIDPSNSDTRFNPEFKDRFTISADTSKNTAYLQMNSLRAEDTAVYYCATYRSYVTPLDYWGQGTLVTVSSASTKGPSVFPLAPSSKSTSGGTAALGCLVADYFPEPVTVSWNSGALTSGVHTFPAVLQSSGLYSLGSVVTVPSSSLGTQTYICNVNHKPSNTKVDKKVEPKSCDKTHTCPPCPAPELLGGPSVFLFPPKPKDTLMISRTPEVTCVVVDVSHEDPEVKFNWYVDGVEVHNAKTKPREEQYQSTYRVVSVLTVLHQDWLNGKEYKCKVSNKALPAPIEKTISKAKGQPREPQVYTLPPSREEMTDNQVSLTCLVKGFYPSDIAVEWESNGQPENNYKTTPPVLMSDGSFFLASKLTVDKSRWQQGNVFSCSVMHEALHNHYTQKSLSLSPG
light 1: RIQMTQSPSSLSASVGDRVTITCKSSQSLLYTSSQKNYLAWYQDKPGKAPKLLIYWASTRESGVPSRFSGSGSGTDFTLTISSLQPEDFATYYCQQYYAYPWTFGQGTKVEIKRTVAAPSVFIFPPSDEQLKSGTARVVCLLNNFYPREAKVQWKVDNALQSGNSQESVTEQDSKDSTYSLISTLTLSKADYEKHKVYACEVTHQGLSSPVTKSFNRGEC
heavy 2: QVQLVQSGAEVKKPGSSVKVSCKASGYTFTTYYLHWVRYAPGQGLEWMGWIYPGNVHAQYNEKFKGRVTITADKSTSTAYMELSSLRSEDTAVYYCARSWEGFPYWGRGTTVTVSSASTKGPSVFPLAPSSKSTSGGTAALGCLVKDYFPEPVTVSWNSGALTSGVHTFPAVLQSSGLYSLSSVVTVPSSSLGTQTYICNVNHKPSNTKVDEKVEPKSCDKTHTCPPCPAPELLGGPSVFLFPPKPKDTLMISRTPEVTCVVVDVSHEDPEVKFNWYVDGVEVHNAKTKPREEQYQSTYRVVSVLTVLHQDWLNGKEYKCKVSNKALPAPIEKTISKAKGQPRRPRVYTLPPSREEMTKNQVSLVCLVKGFYPSDIAVEWESNGQPENNYKTTPPVLDSDGSFFLYSVLTVDKSRWQQGNVFSCSVMHEALHNHYTQKSLSLSPG
light 2: DIQMTQSPSSLSASVGDRVTITCKASQNVGINVAWYQRKPGDAPKSLISSASYRYSGVPSRFSGSGSGTDFTLTISSLQPEDFATYFCQQYDTYPFTFGQGTKVEIKRTVAAPSVFIFPPSDKQLKSGTASVVCLLNNFYPREAKVQWKVDNALQSGNSQESVTEQDSKDSTYSLSSTLTLSKADYEKHKVYACEVTHQGLSSPVTKSFNRGEC
notes: Human IgG1; also called MetMAb × BHA10 14.3.1.2
B2: Pertuzumab × BHA10 IgG BsAb, CH1/Cκ Wild-Type (AB / H4DR variable domain designs, 7.8.60 CH3, N297Q) (bispecific antibody)
heavy 1: EVQLVESGGGLVQPGGSLRLSCAASGFTFTDYTMDWVRKAPGKGLEWVADVNPNSGGSIYNQEFKGRFTLSVDRSKNTLYLQMNSLRAEDTAVYYCARNLGPSFYFDYWGQGTLVTVSSASTKGPSVFPLAPSSKSTSGGTAALGCLVKDYFPEPVTVSWNSGALTSGVHTFPAVLQSSGLYSLSSVVTVPSSSLGTQTYICNVNHKPSNTKVDKKVEPKSCDKTHTCPPCPAPELLGGPSVFLFPPKPKDTLMISRTPEVTCVVVDVSHEDPEVKFNWYVDGVEVHNAKTKPREEQYQSTYRVVSVLTVLHQDWLNGKEYKCKVSNKALPAPIEKTISKAKGQPREPQVYTLPPSREEMTDNQVSLTCLVKGFYPSDIAVEWESNGQPENNYKTTPPVLMSDGSFFLASKLTVDKSRWQQGNVFSCSVMHEALHNHYTQKSLSLSPG
light 1: RIQMTQSPSSLSASVGDRVTITCKASQDVSIGVAWYQDKPGKAPKLLIYSASYRYTGVPSRFSGSGSGTDFTLTISSLQPEDFATYYCQQYYIYPYTFGQGTKVEIKRTVAAPSVFIFPPSDEQLKSGTASVVCLLNNFYPREAKVQWKVDNALQSGNSQESVTEQDSKDSTYSLSSTLTLSKADYEKHKVYACEVTHQGLSSPVTKSFNRGEC
heavy 2: B1 heavy 2 with E212K
light 2: B1 light 2 with K123E
notes: Human IgG1; also called Pertuzumab × BHA10 Wild-Type
B3: MetMAb × Matuzumab IgG BsAb, CH1/Cκ Wild-Type (AB / H4DR variable domain designs, 7.8.60 CH3, N297Q) (bispecific antibody)
heavy 1: B1 heavy 1 with A149K, G185S
light 1: B1 light 1 with R137S, I182S
heavy 2: QVQLVQSGAEVKKPGASVKVSCKASGYTFTSHWMHWVRYAPGQGLEWIGEFNPSNGRTNYNEKFKSKATMTVDTSTNTAYMELSSLRSEDTAVYYCASRDYDYDGRYFDYWGRGTLVTVSSASTKGPSVFPLAPSSKSTSGGTAALGCLVKDYFPEPVTVSWNSGALTSGVHTFPAVLQSSGLYSLSSVVTVPSSSLGTQTYICNVNHKPSNTKVDKKVEPKSCDKTHTCPPCPAPELLGGPSVFLFPPKPKDTLMISRTPEVTCVVVDVSHEDPEVKFNWYVDGVEVHNAKTKPREEQYQSTYRVVSVLTVLHQDWLNGKEYKCKVSNKALPAPIEKTISKAKGQPRRPRVYTLPPSREEMTKNQVSLVCLVKGFYPSDIAVEWESNGQPENNYKTTPPVLDSDGSFFLYSVLTVDKSRWQQGNVFSCSVMHEALHNHYTQKSLSLSPG
light 2: DIQMTQSPSSLSASVGDRVTITCSASSSVTYMYWYQRKPGDAPKLLIYDTSNLASGVPSRFSGSGSGTDYTFTISSLQPEDIATYYCQQWSSHIFTFGQGTKVEIKRTVAAPSVFIFPPSDEQLKSGTASVVCLLNNFYPREAKVQWKVDNALQSGNSQESVTEQDSKDSTYSLSSTLTLSKADYEKHKVYACEVTHQGLSSPVTKSFNRGEC
notes: Human IgG1; also called MetMAb × Matuzumab Wild-Type
B4: Pertuzumab × BHA10 IgG BsAb, CH1/Cκ design 14.3.1.1 (bispecific antibody)
heavy 1: B2 heavy 1 with K149A, S185A
light 1: B2 light 1 with S131R, S176I
heavy 2: B1 heavy 2
light 2: B1 light 2
notes: Human IgG1; also called Pertuzumab × BHA10 14.3.1.1
B5: Pertuzumab × BHA10 IgG BsAb, CH1/Cκ design 14.1.2 (bispecific antibody)
heavy 1: B2 heavy 1 with K149A, K215E
light 1: B2 light 1 with E123K, S131R
heavy 2: B1 heavy 2 with E212K
light 2: B1 light 2 with K123E
notes: Human IgG1; also called Pertuzumab × BHA10 14.1.2
B6: MetMAb × Matuzumab IgG BsAb, CH1/Cκ design 14.1.2 (bispecific antibody)
heavy 1: B1 heavy 1 with G185S, K215E
light 1: B1 light 1 with E129K, I182S
heavy 2: B3 heavy 2
light 2: B3 light 2
notes: Human IgG1; also called MetMAb × Matuzumab 14.1.2
B7: MetMAb × Matuzumab IgG BsAb, CH1/Cκ design 14.3.1.1 (bispecific antibody)
heavy 1: B1 heavy 1 with G185A
light 1: B1 light 1
heavy 2: B3 heavy 2 with K217E
light 2: B3 light 2 with E122K
notes: Human IgG1; also called MetMAb × Matuzumab 14.3.1.1
B8: Pertuzumab × BHA10 IgG BsAb, CH1/Cκ design 14.3.1.2 (bispecific antibody)
heavy 1: B2 heavy 1 with K149A, S185G
light 1: B2 light 1 with S131R, S176I
heavy 2: B1 heavy 2
light 2: B1 light 2
notes: Human IgG1; also called Pertuzumab × BHA10 14.3.1.2
B9: MetMAb × Matuzumab IgG BsAb, CH1/Cκ design 14.3.1.2 (bispecific antibody)
heavy 1: B1 heavy 1
light 1: B1 light 1
heavy 2: B3 heavy 2 with K217E
light 2: B3 light 2 with E122K
notes: Human IgG1; also called MetMAb × Matuzumab 14.3.1.2

Legend:
Test in all cases: sandwich ELISA with mis-matched antigens
[1] = target: T1, hEGFR-Fc-biotin (human, UniProt P00533 25-645, biotin-labelled with EZ-LINK Sulfo-NHS-LC-Biotin)
T1 construct: Bought (R&D systems); Detection antigen of the sandwich; not shown: Fc of the bought fusion protein
Method: (§1) The dual-binding activity of the same synthesized IgG BsAbs is assessed using a sandwich ELISA. […] Sandwich ELISAs are developed for detecting the four different BsAb test articles; one for detecting anti-HER-2/anti-EGFR BsAb activity, one for detecting anti-HER-2/anti-LTPR BsAb activity, one for detecting anti-cMET/anti-EGFR BsAb activity and one for detecting anti-cMET/anti-LTPR BsAb activity. For all ELISAs, clear 96-well round bottom high binding Immulon microtiter plates (Greiner bio-one, cat #650061) are coated overnight at 2-8° C. with 50 μL/well 1 μg/mL hHER-2-Fc or 1 μg/mL hHGFR(cMet)-Fc (both from R&D systems) in a 50 mM Na2CO3 pH 8.3 buffer. The plates are washed 4 times with PBST and blocked with 200 μL/well casein buffer (Pierce) for 1 hr at room temperature. The plates are then washed 4 times with PBST and the parental IgG controls or BsAb IgG test articles are added at 50 μL/well and […] and serially diluted 1:3 down the plate. The controls and test articles are incubated on the plate for 1 hr at room temperature. The plates are then washed 4 times with PBST and 50 μL/well 1 μg/mL hEGFR-Fc-biotin or hLTβR-Fc-biotin (both from R&D systems) is added for 1 hr at room temperature. The plates are then washed 4 times with PBST followed by the addition of a 50 μL/well streptavidin-AP (Jackson Immunoresearch Labs Cat. #016-050-084) diluted 1:1000 in casein buffer. The streptavidin-AP is incubated in each well for 1 hr at room temperature. The plates are then washed 4 times with PBST and 100 μL/well 1-step PNPP substrate is added (Thermo Scientific Cat. #37621). After approximately 5-15 minutes, plates are read for Absorbance (405 nm) using a SPECTRAMAX® UV plate reader (Molecular Devices). Biotin-labeling of the hEGFR-Fc and hLTβR-Fc proteins is performed using EZ-LINK™ Sulfo-NHS-LC-Biotin (Thermo Scientific Cat. #21327) according to the manufacturer's protocol.

[2] = target: T2, hHER-2-Fc (human, UniProt P04626 23-652)
T2 construct: Bought (R&D systems); Coated on the plate; not shown: Fc of the bought fusion protein
Method: as §1

[3] = target: T3, hHGFR(cMet)-Fc (human, UniProt P08581 25-932)
T3 construct: Bought (R&D systems); Coated on the plate; not shown: Fc of the bought fusion protein
T3 sequence (P08581 25-932): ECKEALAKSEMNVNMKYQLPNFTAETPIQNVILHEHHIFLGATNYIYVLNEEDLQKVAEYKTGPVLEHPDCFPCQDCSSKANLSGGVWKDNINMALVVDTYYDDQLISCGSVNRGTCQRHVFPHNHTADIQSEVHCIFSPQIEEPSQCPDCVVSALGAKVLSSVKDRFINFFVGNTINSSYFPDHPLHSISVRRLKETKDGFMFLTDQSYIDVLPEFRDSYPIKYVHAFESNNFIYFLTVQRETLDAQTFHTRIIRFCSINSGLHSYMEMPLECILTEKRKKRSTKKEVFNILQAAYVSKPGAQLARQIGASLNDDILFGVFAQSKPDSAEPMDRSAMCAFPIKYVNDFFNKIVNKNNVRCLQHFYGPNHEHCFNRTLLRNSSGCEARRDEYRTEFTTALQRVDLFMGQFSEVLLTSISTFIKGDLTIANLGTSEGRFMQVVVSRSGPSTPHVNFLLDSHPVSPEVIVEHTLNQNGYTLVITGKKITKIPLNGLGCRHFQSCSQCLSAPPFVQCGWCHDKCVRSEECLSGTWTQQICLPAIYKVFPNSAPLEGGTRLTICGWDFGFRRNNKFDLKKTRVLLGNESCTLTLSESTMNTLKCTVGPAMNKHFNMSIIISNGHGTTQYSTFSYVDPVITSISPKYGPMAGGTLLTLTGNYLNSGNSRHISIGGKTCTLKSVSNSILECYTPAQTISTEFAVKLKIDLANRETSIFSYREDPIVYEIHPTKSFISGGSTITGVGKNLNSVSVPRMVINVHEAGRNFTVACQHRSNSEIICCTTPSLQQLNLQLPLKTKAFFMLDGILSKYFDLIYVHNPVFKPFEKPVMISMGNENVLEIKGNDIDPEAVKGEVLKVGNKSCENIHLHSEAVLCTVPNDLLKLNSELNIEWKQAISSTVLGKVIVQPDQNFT
Method: as §1

[4] = target: T4, hLTβR-Fc-biotin (human, UniProt P36941 28-227, limits assumed, biotin-labelled with EZ-LINK Sulfo-NHS-LC-Biotin)
T4 construct: Bought (R&D systems); Detection antigen of the sandwich; also called LTPR (as printed once); not shown: Fc of the bought fusion protein
T4 sequence (P36941 28-227 limits assumed): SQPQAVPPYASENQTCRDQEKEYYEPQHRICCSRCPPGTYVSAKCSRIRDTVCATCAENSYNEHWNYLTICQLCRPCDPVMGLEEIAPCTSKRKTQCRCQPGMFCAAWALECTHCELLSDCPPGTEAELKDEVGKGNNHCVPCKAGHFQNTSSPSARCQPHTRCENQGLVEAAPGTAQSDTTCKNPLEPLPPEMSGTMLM
Method: as §1

| Binder | binding result [1] | binding result [2] | binding result [3] | binding result [4] |
| --- | --- | --- | --- | --- |
| B1 | no binding | no binding | – | – |
| B2 | no binding | – | no binding | – |
| B3 | – | no binding | – | no binding |
| B4 | no binding | – | no binding | – |
| B5 | no binding | – | no binding | – |
| B6 | – | no binding | – | no binding |
| B7 | – | no binding | – | no binding |
| B8 | no binding | – | no binding | – |
| B9 | – | no binding | – | no binding |
